Measured values: patent US20030219740

Columns and labels:
[1] = target: carboxyl terminal APC fragment (UniProt P25054)
Chain of carboxyl terminal APC fragment (P25054 2168-2843): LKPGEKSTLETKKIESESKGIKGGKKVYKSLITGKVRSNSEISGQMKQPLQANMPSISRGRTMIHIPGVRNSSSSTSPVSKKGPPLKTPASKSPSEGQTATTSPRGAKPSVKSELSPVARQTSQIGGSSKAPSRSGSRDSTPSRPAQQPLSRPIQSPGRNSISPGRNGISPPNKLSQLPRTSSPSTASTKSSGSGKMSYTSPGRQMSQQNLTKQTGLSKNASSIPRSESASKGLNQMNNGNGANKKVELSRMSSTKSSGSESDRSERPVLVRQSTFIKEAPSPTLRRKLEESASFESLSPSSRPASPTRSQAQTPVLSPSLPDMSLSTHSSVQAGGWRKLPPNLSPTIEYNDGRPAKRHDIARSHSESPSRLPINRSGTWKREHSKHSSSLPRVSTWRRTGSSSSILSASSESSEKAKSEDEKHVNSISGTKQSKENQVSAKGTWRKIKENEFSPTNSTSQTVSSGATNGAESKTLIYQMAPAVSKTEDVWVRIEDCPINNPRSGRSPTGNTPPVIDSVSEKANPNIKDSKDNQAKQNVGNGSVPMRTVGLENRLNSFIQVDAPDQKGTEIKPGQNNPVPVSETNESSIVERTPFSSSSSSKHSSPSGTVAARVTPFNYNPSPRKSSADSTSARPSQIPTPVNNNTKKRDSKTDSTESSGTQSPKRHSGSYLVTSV

## MNSRPRRRDIDRLEHLHLTEFGLKLGQKIFLLNKRDFILFLSLF (enzyme) [CATX-2 protein]
histone
  phosphorylation in vitro (γ-32P): CATX-2 protein could phosphorylate histone 5 µg
poly-threonine
  phosphorylation in vitro (γ-32P): CATX-2 protein could phosphorylate histone 5 µg, poly-threonine 5 µg
[1]
  phosphorylation in vitro (γ-32P): CATX-2 protein could phosphorylate histone 5 µg, poly-threonine 5 µg, and COOH-APC fragment (1-5 µg)
